# According to IntAct's records for PubMed 17003044:
# B1: BAR/IMD domain-containing adapter protein 2 (Homo sapiens), Q9UQB8 (parent)
# chain: MSLSRSEEMHRLTENVYKTIMEQFNPSLRNFIAMGKNYEKALAGVTYAAKGYFDALVKMGELASESQGSKELGDVLFQMAEVHRQIQNQLEEMLKSFHNELLTQLEQKVELDSRYLSAALKKYQTEQRSKGDALDKCQAELKKLRKKSQGSKNPQKYSDKELQYIDAISNKQGELENYVSDGYKTALTEERRRFCFLVEKQCAVAKNSAAYHSKGKELLAQKLPLWQQACADPSKIPERAVQLMQQVASNGATLPSALSASKSNLVISDPIPGAKPLPVPPELAPFVGRMSAQESTPIMNGVTGPDGEDYSPWADRKAAQPKSLSPPQSQSKLSDSYSNTLPVRKSVTPKNSYATTENKTLPRSSSMAAGLERNGRMRVKAIFSHAAGDNSTLLSFKEGDLITLLVPEARDGWHYGESEKTKMRGWFPFSYTRVLDSDGSDRLHMSLQQGKSSSTGNLLDKDDLAIPPPDYGAASRAFPAQTASGFKQRPYSVAVPAFSQGLDDYGARSMSRNPFAHVQLKPTVTNDRCDLSAQGPEGREHGDGSARTLAGR
# Variants of: B1
# Conditions: with rac1_human RAC1, P63000
row,Variant,effect of a mutation on the interaction
1,MSLSRSEEMHRLTENVYKTIMEQFNPSLRNFIAMGKNYEKALAGVTYAAKGYFDALVKMGELASESQGSKELGDVLFQMAEVHRQIQNQLEEMLKSFHNELLTQLEQKVELDSRYLSAALKKYQTEQRSKGDALDKCQAELKELRKESQGSKNPQKYSDKELQYIDAISNKQGELENYVSDGYKTALTEERRRFCFLVEKQCAVAKNSAAYHSKGKELLAQKLPLWQQACADPSKIPERAVQLMQQVASNGATLPSALSASKSNLVISDPIPGAKPLPVPPELAPFVGRMSAQESTPIMNGVTGPDGEDYSPWADRKAAQPKSLSPPQSQSKLSDSYSNTLPVRKSVTPKNSYATTENKTLPRSSSMAAGLERNGRMRVKAIFSHAAGDNSTLLSFKEGDLITLLVPEARDGWHYGESEKTKMRGWFPFSYTRVLDSDGSDRLHMSLQQGKSSSTGNLLDKDDLAIPPPDYGAASRAFPAQTASGFKQRPYSVAVPAFSQGLDDYGARSMSRNPFAHVQLKPTVTNDRCDLSAQGPEGREHGDGSARTLAGR [K143E;K147E],decreasing interaction strength
2,MSLSRSEEMHRLTENVYKTIMEQFNPSLRNFIAMGKNYEKALAGVTYAAKGYFDALVKMGELASESQGSKELGDVLFQMAEVHRQIQNQLEEMLKSFHNELLTQLEQKVELDSRYLSAALKKYQTEQRSKGDALDKCQAELAALAAASQGSKNPQKYSDKELQYIDAISNKQGELENYVSDGYKTALTEERRRFCFLVEKQCAVAKNSAAYHSKGKELLAQKLPLWQQACADPSKIPERAVQLMQQVASNGATLPSALSASKSNLVISDPIPGAKPLPVPPELAPFVGRMSAQESTPIMNGVTGPDGEDYSPWADRKAAQPKSLSPPQSQSKLSDSYSNTLPVRKSVTPKNSYATTENKTLPRSSSMAAGLERNGRMRVKAIFSHAAGDNSTLLSFKEGDLITLLVPEARDGWHYGESEKTKMRGWFPFSYTRVLDSDGSDRLHMSLQQGKSSSTGNLLDKDDLAIPPPDYGAASRAFPAQTASGFKQRPYSVAVPAFSQGLDDYGARSMSRNPFAHVQLKPTVTNDRCDLSAQGPEGREHGDGSARTLAGR [K142A;K143A;R145A;K146A;K147A],decreasing interaction strength
3,MSLSRSEEMHELTENVYKTIMEEFNPSLRNFIAMGKNYEKALAGVTYAAKGYFDALVKMGELASESQGSKELGDVLFQMAEVHRQIQNQLEEMLKSFHNELLTQLEQKVELDSRYLSAALKKYQTEQRSKGDALDKCQAELKKLRKKSQGSKNPQKYSDKELQYIDAISNKQGELENYVSDGYKTALTEERRRFCFLVEKQCAVAKNSAAYHSKGKELLAQKLPLWQQACADPSKIPERAVQLMQQVASNGATLPSALSASKSNLVISDPIPGAKPLPVPPELAPFVGRMSAQESTPIMNGVTGPDGEDYSPWADRKAAQPKSLSPPQSQSKLSDSYSNTLPVRKSVTPKNSYATTENKTLPRSSSMAAGLERNGRMRVKAIFSHAAGDNSTLLSFKEGDLITLLVPEARDGWHYGESEKTKMRGWFPFSYTRVLDSDGSDRLHMSLQQGKSSSTGNLLDKDDLAIPPPDYGAASRAFPAQTASGFKQRPYSVAVPAFSQGLDDYGARSMSRNPFAHVQLKPTVTNDRCDLSAQGPEGREHGDGSARTLAGR [R11E;Q23E],decreasing interaction strength
4,MSLSRSEEMHRLTENVYKTIMEQFNPSLRNFIAMGKNYEKALAGVTYAAKGYFDALVKMGELASESQGSKELGDVLFQMAEVHRQIQNQLEEMLKSFHNELLTQLEQKVELDSRYLSAALKKYQTEQRSKGDALDKCQAELKELRKKSQGSKNPQKYSDKELQYIDAISNKQGELENYVSDGYKTALTEERRRFCFLVEKQCAVAKNSAAYHSKGKELLAQKLPLWQQACADPSKIPERAVQLMQQVASNGATLPSALSASKSNLVISDPIPGAKPLPVPPELAPFVGRMSAQESTPIMNGVTGPDGEDYSPWADRKAAQPKSLSPPQSQSKLSDSYSNTLPVRKSVTPKNSYATTENKTLPRSSSMAAGLERNGRMRVKAIFSHAAGDNSTLLSFKEGDLITLLVPEARDGWHYGESEKTKMRGWFPFSYTRVLDSDGSDRLHMSLQQGKSSSTGNLLDKDDLAIPPPDYGAASRAFPAQTASGFKQRPYSVAVPAFSQGLDDYGARSMSRNPFAHVQLKPTVTNDRCDLSAQGPEGREHGDGSARTLAGR [K143E],decreasing interaction strength
5,MSLSRSEEMHRLTENVYKTIMEEFNPSLRNFIAMGKNYEKALAGVTYAAKGYFDALVKMGELASESQGSKELGDVLFQMAEVHRQIQNQLEEMLKSFHNELLTQLEQKVELDSRYLSAALKKYQTEQRSKGDALDKCQAELKKLRKKSQGSKNPQKYSDKELQYIDAISNKQGELENYVSDGYKTALTEERRRFCFLVEKQCAVAKNSAAYHSKGKELLAQKLPLWQQACADPSKIPERAVQLMQQVASNGATLPSALSASKSNLVISDPIPGAKPLPVPPELAPFVGRMSAQESTPIMNGVTGPDGEDYSPWADRKAAQPKSLSPPQSQSKLSDSYSNTLPVRKSVTPKNSYATTENKTLPRSSSMAAGLERNGRMRVKAIFSHAAGDNSTLLSFKEGDLITLLVPEARDGWHYGESEKTKMRGWFPFSYTRVLDSDGSDRLHMSLQQGKSSSTGNLLDKDDLAIPPPDYGAASRAFPAQTASGFKQRPYSVAVPAFSQGLDDYGARSMSRNPFAHVQLKPTVTNDRCDLSAQGPEGREHGDGSARTLAGR [Q23E],decreasing interaction strength
